In patent US20210094998A1:

Experiments:
Assay in all cases: cell-based or functional assay
[1] = molecular target: CRHR1
[2] = molecular target: CRHR2
[3] = molecular target: rat glucagon receptor (rat) (UniProt P30082)
[4] = molecular target: mouse GLP1 receptor (mouse) (UniProt O35659)
[5] = molecular target: human GLP1 receptor (human) (UniProt P43220)
[6] = molecular target: cynomolgus monkey GLP1 receptor (cynomolgus monkey) (UniProt F8V479)
[7] = molecular target: human glucagon receptor (human) (UniProt P47871)
[8] = molecular target: mouse glucagon receptor (mouse) (UniProt Q61606)
[9] = molecular target: cynomolgus monkey glucagon receptor (cynomolgus monkey)
[10] = molecular target: rat Y2 receptor (rat)
[11] = molecular target: rhesus monkey Y2 receptor (rhesus monkey) (UniProt Q9GK74)
[12] = molecular target: mouse Y2 receptor (mouse) (UniProt P97295)
[13] = molecular target: human Y1 receptor (human) (UniProt P25929)
Sequence of human Y1 receptor (human) (P25929 whole entry): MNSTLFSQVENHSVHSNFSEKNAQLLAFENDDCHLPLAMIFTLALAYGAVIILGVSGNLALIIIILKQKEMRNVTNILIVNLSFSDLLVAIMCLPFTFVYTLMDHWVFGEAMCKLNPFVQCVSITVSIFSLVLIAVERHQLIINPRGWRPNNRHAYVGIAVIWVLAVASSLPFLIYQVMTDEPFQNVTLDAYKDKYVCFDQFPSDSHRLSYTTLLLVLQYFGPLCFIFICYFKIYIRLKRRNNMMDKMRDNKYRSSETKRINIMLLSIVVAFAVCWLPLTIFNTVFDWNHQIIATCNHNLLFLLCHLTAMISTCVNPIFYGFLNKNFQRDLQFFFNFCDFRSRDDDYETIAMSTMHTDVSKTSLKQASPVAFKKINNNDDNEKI

Sequence of rhesus monkey Y2 receptor (rhesus monkey) (Q9GK74 whole entry): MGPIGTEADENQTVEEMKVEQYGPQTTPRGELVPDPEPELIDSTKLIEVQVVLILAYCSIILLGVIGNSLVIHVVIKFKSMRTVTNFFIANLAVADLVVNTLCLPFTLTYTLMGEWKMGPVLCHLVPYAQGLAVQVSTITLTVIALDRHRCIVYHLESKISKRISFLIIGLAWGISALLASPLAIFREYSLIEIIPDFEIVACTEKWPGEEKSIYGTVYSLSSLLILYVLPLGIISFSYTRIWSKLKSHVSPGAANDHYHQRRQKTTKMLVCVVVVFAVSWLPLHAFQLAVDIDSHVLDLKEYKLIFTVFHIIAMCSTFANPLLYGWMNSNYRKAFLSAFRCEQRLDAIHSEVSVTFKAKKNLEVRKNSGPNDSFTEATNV
Sequence of human glucagon receptor (human) (P47871 26-477): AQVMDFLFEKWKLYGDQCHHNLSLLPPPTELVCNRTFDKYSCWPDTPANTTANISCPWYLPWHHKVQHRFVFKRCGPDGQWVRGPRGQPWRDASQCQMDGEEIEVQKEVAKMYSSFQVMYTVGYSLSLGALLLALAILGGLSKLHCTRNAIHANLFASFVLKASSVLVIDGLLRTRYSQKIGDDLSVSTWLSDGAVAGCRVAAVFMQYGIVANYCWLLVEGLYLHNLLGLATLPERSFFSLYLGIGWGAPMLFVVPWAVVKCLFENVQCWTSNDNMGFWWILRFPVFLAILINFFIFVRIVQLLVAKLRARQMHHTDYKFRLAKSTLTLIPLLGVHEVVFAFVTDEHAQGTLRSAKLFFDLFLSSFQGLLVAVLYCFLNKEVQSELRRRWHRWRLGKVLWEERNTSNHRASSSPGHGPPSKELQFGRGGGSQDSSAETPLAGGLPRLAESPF
Sequence of mouse glucagon receptor (mouse) (Q61606 27-485): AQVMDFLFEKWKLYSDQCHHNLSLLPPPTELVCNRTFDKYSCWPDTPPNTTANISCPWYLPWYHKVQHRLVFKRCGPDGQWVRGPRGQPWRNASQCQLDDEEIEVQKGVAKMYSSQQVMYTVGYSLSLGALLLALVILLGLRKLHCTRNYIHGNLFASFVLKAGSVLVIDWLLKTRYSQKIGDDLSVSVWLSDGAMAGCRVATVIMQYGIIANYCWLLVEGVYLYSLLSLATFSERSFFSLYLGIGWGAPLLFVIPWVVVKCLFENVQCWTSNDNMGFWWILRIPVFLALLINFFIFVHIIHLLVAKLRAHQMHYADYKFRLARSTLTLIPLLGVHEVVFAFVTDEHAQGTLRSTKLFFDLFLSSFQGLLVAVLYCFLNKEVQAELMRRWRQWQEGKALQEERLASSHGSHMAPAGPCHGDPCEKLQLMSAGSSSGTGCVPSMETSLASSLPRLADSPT
Sequence of human GLP1 receptor (human) (P43220 24-463): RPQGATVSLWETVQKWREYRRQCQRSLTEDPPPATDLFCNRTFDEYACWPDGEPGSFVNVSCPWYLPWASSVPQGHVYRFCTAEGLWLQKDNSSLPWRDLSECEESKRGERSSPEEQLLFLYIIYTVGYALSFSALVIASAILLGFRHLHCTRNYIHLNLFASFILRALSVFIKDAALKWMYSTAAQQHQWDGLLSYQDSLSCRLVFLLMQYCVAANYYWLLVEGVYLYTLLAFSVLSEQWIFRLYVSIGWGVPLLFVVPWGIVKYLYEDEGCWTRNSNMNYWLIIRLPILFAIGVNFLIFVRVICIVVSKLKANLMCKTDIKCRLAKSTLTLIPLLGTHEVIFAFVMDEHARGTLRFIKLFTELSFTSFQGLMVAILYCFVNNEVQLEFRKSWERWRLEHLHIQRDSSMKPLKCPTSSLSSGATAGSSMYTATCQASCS
Sequence of rat glucagon receptor (rat) (P30082 27-485): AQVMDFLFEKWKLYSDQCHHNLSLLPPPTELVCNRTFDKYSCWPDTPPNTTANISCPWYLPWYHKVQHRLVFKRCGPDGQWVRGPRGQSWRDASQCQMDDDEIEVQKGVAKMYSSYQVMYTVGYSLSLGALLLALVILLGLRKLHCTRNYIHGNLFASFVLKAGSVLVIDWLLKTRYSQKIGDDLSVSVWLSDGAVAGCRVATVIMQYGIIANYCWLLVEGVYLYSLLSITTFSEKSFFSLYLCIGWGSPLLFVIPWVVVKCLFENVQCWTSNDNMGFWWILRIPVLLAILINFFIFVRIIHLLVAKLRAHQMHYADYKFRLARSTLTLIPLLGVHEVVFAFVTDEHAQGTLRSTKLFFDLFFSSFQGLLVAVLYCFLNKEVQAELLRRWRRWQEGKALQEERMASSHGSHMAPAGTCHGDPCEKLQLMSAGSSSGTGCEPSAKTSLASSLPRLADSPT
Sequence of mouse GLP1 receptor (mouse) (O35659 22-463): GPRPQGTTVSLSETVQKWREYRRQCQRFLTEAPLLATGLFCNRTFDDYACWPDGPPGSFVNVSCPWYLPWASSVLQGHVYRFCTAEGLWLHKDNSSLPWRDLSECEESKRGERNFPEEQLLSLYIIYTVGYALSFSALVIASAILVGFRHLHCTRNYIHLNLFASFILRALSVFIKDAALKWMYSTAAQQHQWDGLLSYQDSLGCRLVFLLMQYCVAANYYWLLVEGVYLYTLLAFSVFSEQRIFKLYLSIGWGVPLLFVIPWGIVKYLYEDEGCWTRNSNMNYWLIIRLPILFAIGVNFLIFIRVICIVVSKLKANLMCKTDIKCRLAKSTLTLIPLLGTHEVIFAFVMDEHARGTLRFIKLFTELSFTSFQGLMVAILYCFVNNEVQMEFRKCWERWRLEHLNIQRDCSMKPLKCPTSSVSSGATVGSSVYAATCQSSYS
Sequence of mouse Y2 receptor (mouse) (P97295 whole entry): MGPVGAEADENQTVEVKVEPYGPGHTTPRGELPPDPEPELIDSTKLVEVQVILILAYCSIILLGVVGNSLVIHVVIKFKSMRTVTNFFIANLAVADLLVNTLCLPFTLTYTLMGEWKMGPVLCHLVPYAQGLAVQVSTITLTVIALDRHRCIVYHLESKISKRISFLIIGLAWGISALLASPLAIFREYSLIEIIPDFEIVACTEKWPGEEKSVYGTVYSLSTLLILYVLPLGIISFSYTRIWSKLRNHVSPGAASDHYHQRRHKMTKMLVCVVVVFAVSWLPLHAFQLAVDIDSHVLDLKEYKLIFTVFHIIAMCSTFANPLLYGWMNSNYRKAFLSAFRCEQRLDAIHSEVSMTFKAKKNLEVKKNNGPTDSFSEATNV

Work on “Sauvagine (from UniProt P01144 1-40) (peptide; unit assumed)” yielded a Max response, cAMP assay [1] of 106% and a Max response, cAMP assay [2] of 107%.
Ser-8 GLP1 (peptide) was tested, and the EC50, receptor cAMP assay [3] was > 100 nM, the EC50, receptor cAMP assay [4] was 0.06 nM and the EC50, receptor cAMP assay [5] was 0.07 nM. The EC50, receptor cAMP assay [6] was 0.08 nM, the EC50, receptor cAMP assay [7] was > 100 nM and the EC50, receptor cAMP assay [8] was > 100 nM. For the same substance, the EC50, receptor cAMP assay [9] was > 100 nM.
Work on “Sauvagine (from UniProt P01144 1-40) (peptide)” yielded an RC50, cAMP assay [1] of 0.000308 µM and an RC50, cAMP assay [2] of 0.0034 µM.
In the case of PYY3-36 (peptide), the EC50, cAMP assay (LANCE) on receptor-expressing cells [10] is reported as 0.5 nM, the EC50, cAMP assay (LANCE) on receptor-expressing cells [11] is reported as 0.06 nM and the EC50, cAMP assay (LANCE) on receptor-expressing cells [12] is reported as 0.03 nM. It also gave an EC50, cAMP assay (LANCE) on receptor-expressing cells [13] of 66.4 nM.
